Measurements as given in the DeepSol protein solubility set.

Assay: soluble on expression in E. coli; label from the status in PepcDB or PDB records

Sequence	soluble on expression in E. coli
QGMIMTSDIKLLDYLRVRRSTPALQLSEPGPSKGEIEEILRLAVRVPDHGKLAPWRFVVYRGEERVRLSEAALRIALEKNPDLDLQQQEAERTRFTRAPVVIAVISTAKPHFKIPEWEQVMSAGAVCLNVIFAANASGFAANWLTEWLAFDPAFLAEIGVSAEEKVAGYIHIGSTTFPPVERPRPELADVVTWVGDV	soluble
MGVKVASSSTFLQWTTQPIIHQSSSPSQTLASGTITSPSKRRSTVHDGRFLSCRFVTQRLNRSALFGTPSTKLHRPKSCELWKSSSSSSRPIKTQSFRRVYSANLDPFSDEEFSKKIQELTLRFNIPHHDDDENSIEPPWNEMVHLSSIEMKANSVDLPLSLRIIKKKRQWEEGVKQAGESACCSMNKAFSSMVFMIRELQSFTLHMREILFYEDLQEILLRVREEMQQSFVWLFQQVFSATPTLMVYVMILLANFTVYSIGNNSSALAAVAPLPPTITELTTVSETEETNVKFDSSVVKTFFVSSPSGSIASVGGNNNGGGGNVKPVLSGTDGDGSDGSEQFRTIIPEGVSQLSSSNFGSEPSVSGQDEHRLWNSMVEEAERMQYSNIDDSLDQETRKRFVSHVEARVEAEEDTGYFKTELMYQTELSQEPNNPLLLANYAQFLYLVSNDHDRAEEYFKRAVGVEPKDAEAFSKYATFLWRARDDLWAAEETFLEAIDADPTNSYYAANYANFLWNTGGDDTCFPLDDESHEDTI	not soluble
MSLTNLTVHTLEKDDIDSIIEIENLCFPTPWTKESMEGELRNKFAKYVVIKNNNLVVGYGGLWLIIDEGHITNIAVHPEFRGMGIGNKILEELIKLCEKRNIPSMTLEVRISNTIAQNLYKKFGFKEAGVRKKYYGDNDEDALIMWRNEGHHHHHH	soluble
KKTSGNQDEILVIRKGWLTINNIGIMKGGSKEYWFVLTAENLSWYKDDEEKEKKYMLSVDNLKLRDVEKGFMSSKHIFALFNTEQRNVYKDYRQLELACETQEEVDSWKASFLRAGVYPERV	soluble
MGSDKIHHHHHHMAAPDTPPDSPPPISAVEMPSGKDAGTENFPVGSVLLPARLRPHVARFYAFARAIDDIADSPDLDAAAKIDRLQGFEEAITGRDTTDPAYAKGHALRVSLEATGVPAIHGVELIAAFKQDAVKGRYATWAEMMDYCRLSAAPVGRYLIDLHGGSRAGYASSDALCVALQVINHLQDCQDDFRVLDRVYLPADWLAAEGASVSDLDRAACTPGLRRVLDRCLEGTRRLLDAARPLPGDIIDRRLGLEAAVIVSIAQTLTGRLARQDPLAQRVKLGKAATAFCAARACAAYLMVPGAYR	not soluble
MSLKNLQCELDWERRFDGMQQHLGQHLLSGCFYDLFGANTCGFHLGKEISTVDIVGFLDEKTIREAEKEANRLIFENLEVKSYAPSKKELKKVKTRRALPKTDEEIRIVEIVGLDLNACCGVHPRNTRDLQVIKIRRWEKHKNATRIEYVAGNRAVSEGHHHHHH	not soluble
AGKPDWDWQPAPKNEALIAAVSAAAQEGLNAAYQIREKQARTTKLREVYAAVQAAMAEQAAQAGQPAPDSVGVDNILFDLEARIVRSQILNGEPRIDGRDTRTVRP	not soluble
MAHHHHHHMSDEAARQQRSAELADQVRTFFATYAGSAEERLDVVRGYEKCRGDFKKMVREYLLFDNGVEAEVQRLHRLVSTLIELGNLSPTPAWKSTSTPEALLRLEKAMHRERQEAENVLKDMAGSGTGAAGAADGDLSSLQVMIRQRQQSSYESMLNHLESKYVTKKSNARESSSAHVRPHRPLARTNVLPKSTGKPLITGKSGTCAEEASASGIRPGNVGRIPLSTAVIFCFLCYCGRYRSWLNACDLSPHLLTQPPKFPAWLRGQPITVL	soluble
MMDESLCGGLPPEICEQLSVEEQIIKIRLEKRRFGREVTIIEGINEKEFNLKKLASTLKSRLATGGTAKNGRIELQGDHRHRVKKILVELGFPEENITIID	soluble
SDPATCPIIPGCETTIEISKGRTGLGLSIVGGSDTLLGAIIIHEVYEEGAACKDGRLWAGDQILEVNGIDLRKATHDEAINVLRQTPQRVRLTLYRDEAPYKEEEVCDTLTIELQKKPGKGLGLSIVGKRNDTGVFVSDIVKGGIADADGRLMQGDQILMVNGEDVRNATQEAVAALLKCSLGTVTLEVGRIKAGPFHSERRPSQSSQVSEGSLSSFTFPLSGSSTSESLESSSKKNALASEIQGLRTVEMKKGPTDSLGISIAGGVGSPLGDVPIFIAMMHPTGVAAQTQKLRVGDRIVTICGTSTEGMTHTQAVNLLKNASGSIEMQVVAGGDVSVVTGHQQEPASSSLSFTGLTSSSIFQDDLGPPQCKSITLERGPDGLGFSIVGGYGSPHGDLPIYVKTVFAKGAASEDGRLKRGDQIIAVNGQSLEGVTHEEAVAILKRTKGTVTLMVLS	soluble
MTRQEELAAARAALHDLMTGKRVATVQKDGRRVEFTATSVSDLKKYIAELEVQTGMTQRRRGPAGFYV	soluble
MSLRLIATEEAVTFQPVVDALRAHSRTDDASLDMILVRDVYGDEPARPAMIGRLSDVTGERLAEMDSNGVDMHLLSLTAPGVQMFDAETGTRLARIANDLMAQTVAANPTRFAGLGTFAPQDPASAAREIERVATQLRLNGLVINSHTNDLYYDDPFFHPVFEAIEASGLALYIHPRAPSKQIDRAFRDYGMNSAIWGYGIETSTNAVRMILSGLFDRFPRLKIVLGHMGEAIPFWLWRLDYMHGNATTFGGAPKLKLKPSEYFRRNFAITTSGVESHAALRYSIEVLGPENVMWAIDYPYQPMAPAVQFIRTAPIPEDVKAMVAGGNAARIFRITEGHHHHHH	soluble
MIQTKDIIELTDTYGANNYHPLPIVISKAEGVWVEDPEGNRYMDLLSAYSAVNQGHRHPKIINALIDQANRVTLTSRAFHSDQLGPWYEKVAKLTNKEMVLPMNTGAEAVETAIKTARRWAYDVKKVEANRAEIIVCEDNFHGRTMGAVSMSSNEEYKRGFGPMLPGIIVIPYGDLEALKAAITPNTAAFILEPIQGEAGINIPPAGFLKEALEVCKKENVLFVADEIQTGLGRTGKVFACDWDNVTPDMYILGKALGGGVFPISCAAANRDILGVFEPGSHGSTFGGNPLACAVSIAALEVLEEEKLTERSLQLGEKLVGQLKEIDNPMITEVRGKGLFIGIELNEPARPYCEQLKAAGLLCKETHENVIRIAPPLVISEEDLEWAFQKIKAVLS	not soluble
LIIGVTGCPAGIAHTYLAAEALEKGAAALGFEIKVETNGSIGVKNSPSAEEIERAEAIVVACDKQVDMARFAGKRLIKTNVKAPIRDAQKLINEALRAPTY	not soluble
MSLKTSKTSTVVLIVPTTWSPFFAELVYRMQVELDRIGFKMILANSHADPDEEEEILRMASLNQVTGVITMSYSNIYNFINIGKKLNLVSIERFISEDVPLITSDNYGGGQLAAEKLITFGSKRFLLLRRKTNHYNATDKRTEGFLHIMKENNLPVDIFEASLKENYIEEFIHYLKTHFSGDVLTFDGIFGVTDEYAVIAKQVLFELNPSYLNKVNIIGFDGSKSQEKGSYQIASIRQPVEAMVKAAVKVLKKLIDGEEVPSHYSKVFDVSFVEPERLVEGHHHHHH	soluble
MAHHHHHHMSTSRPAAVLHAASDDEKEDDPMAVLWQHERHVLVLTRAGKPIFSQHGHEEQLSPLCALLQVLLCIHEDKGGGDEQSRGPSQPAPRSDGTASSAAVKDELHQVVYYRSKSASGQACHQGDVNAQVQALTLFFYVQGDLIYLMSVRSVAPSLPAGAVEMSNAEGECEPPPLASYCLAQLRHVHHCILLVLPTVNTLLTRSPGLDVMAMYTSADRAALRELIESYQTELTYAVGAVATLALSVEKRRVVERALLCCYRSCADAAVGPPAHQLFSFLYFKNYLVAAVGPPETYAADPKVSVSAPLALGPDTALCGCLHVDDALLLYRYARSLVSRQLGEAWVPVCLPRFNSTGYLWCYAVNFTRYARELRKQQGKTEWPKVWEEHTELDIMLLHVSASQDDFAALSRSTRRFAQILCAPAVEDNFYYRLEEELYYRTPAPLTELLPSSHTSVSTCSSRDLSGYTDGVPVVVWRGHSRQ	not soluble
MKITREELAVQVDVAQWSWLRAHLERGGLIVVNRGLDLVEVGVSIASDDTAVVGDWIQTGLLAKPSAEQISAWDANEEISFSALIISPYVLIQEQKQ	not soluble
